Data: patent US5763590A (Vertex Pharmaceuticals, Inc., priority 1994, dated 1998)
Read-outs that look alike come from different tables or passages of the source. Blank lines part the entries; values can stand above or below the molecule they belong to.

What was measured:
hFKBP52 = molecular target: T1, hFKBP52 (Homo sapiens, UniProt Q02790); test: Inhibition of peptidyl-prolyl cis-trans isomerase (PPIase) activity of hFKBP52; type: biochemical
T1 construct: The hFKBP52 open reading frame (ORF) was expressed in E. coli with a vector (pQE8, Qiagen Inc.); histidine tag (pQE8) (N, cleaved yes); Factor Xa cleavage site (Ile-Glu-Gly-Arg) (N, cleaved yes); made in house; host or cells: E. coli XA90
T1 sequence (Q02790 1-459): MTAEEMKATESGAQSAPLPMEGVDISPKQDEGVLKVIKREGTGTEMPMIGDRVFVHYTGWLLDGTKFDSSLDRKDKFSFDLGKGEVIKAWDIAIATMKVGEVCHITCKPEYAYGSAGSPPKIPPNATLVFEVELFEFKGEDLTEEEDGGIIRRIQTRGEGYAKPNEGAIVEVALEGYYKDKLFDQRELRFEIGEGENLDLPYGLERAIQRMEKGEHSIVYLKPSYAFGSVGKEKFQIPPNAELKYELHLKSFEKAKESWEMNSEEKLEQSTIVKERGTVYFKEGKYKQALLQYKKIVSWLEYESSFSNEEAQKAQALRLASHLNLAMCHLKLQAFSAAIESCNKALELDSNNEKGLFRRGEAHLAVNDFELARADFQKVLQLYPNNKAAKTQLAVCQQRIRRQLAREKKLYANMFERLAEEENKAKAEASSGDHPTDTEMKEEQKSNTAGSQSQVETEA
Protocol: The peptidyl-prolyl isomerization rate was determined by coupling isomerization of a prolyl-containing peptide to trans substrate hydrolysis by chymotrypsin (Fisher, G., et al., Nature 337:476-478 (1989)). The assay was performed according to Harrison and Stein (Biochem., 29:3813-3816 (1980) with modifications described by Park S. T., et al., J. Biol. Chem. 267:3316-3324 (1992). The tetrapeptide substrate succinyl-Ala-P1-Pro-Phe-p-nitroanilide, where P1=Leu, was used to determine specific activity and inhibition constants, and a series of peptide substrates with related structures (P1=Phe, Val, Ala, Gly, Glu or Lys) was used to determine substrate specificity. Protein concentrations of rhFKBP52 stock solutions were determined by a Coomassie Blue binding assay (Bradford, M., Anal. Biochem., 72:248-254 (1976)). FKBP52 (60 nM final) was added to a reaction mixture containing substrate (27 μM final) in 0.1M Tris-HCl, pH 7.8 at 15° C., and the solution was incubated in a 2 ml cuvette for 5 min at 15° C. […] For measurement of substrate specificity, the final FKBP52 concentration was adjusted so the Kobs was at least four-fold higher than knon-enz. Inhibition data were fit to an equation for tight-binding competitive inhibitors using KineTic™ software (BioKin, Ltd.) running on a Macintosh IIcx computer.

[1] = cited from earlier work
[2] = PPIase catalysis of the isomerization of tetrapeptide substrates (chymotrypsin-coupled assay); type: biochemical
Protocol: As described in detail in Example 2, the assay of Harrison and Stein (Harrison, R. K. and R. L. Stein, Biochemistry 29:3813-3816 (1990)) can be used to measure peptidyl prolyl cis-trans isomerization (PPIase) activity of FKBP52.
The peptidyl-prolyl isomerization rate was determined by coupling isomerization of a prolyl-containing peptide to trans substrate hydrolysis by chymotrypsin (Fisher, G., et al., Nature 337:476-478 (1989)). The assay was performed according to Harrison and Stein (Biochem., 29:3813-3816 ([…]) with modifications described by Park S. T., et al., J. Biol. Chem. 267:3316-3324 (1992). The tetrapeptide substrate succinyl-Ala-P1-Pro-Phe-p-nitroanilide, where P1=Leu, was used to determine specific activity and inhibition constants, and a series of peptide substrates with related structures (P1=Phe, Val, Ala, Gly, Glu or Lys) was used to determine substrate specificity. Protein concentrations of rhFKBP52 stock solutions were determined by a Coomassie Blue binding assay (Bradford, M., Anal. Biochem., 72:248-254 (1976)). FKBP52 (60 nM final) was added to a reaction mixture containing substrate (27 μM final) in 0.1M Tris-HCl, pH 7.8 at 15° C., and the solution was incubated in a 2 ml cuvette for 5 min at 15° C. (950 μl final) before adding chymotrypsin (100 μg ml^-1 final) to start reaction. For measurement of substrate specificity, the final FKBP52 concentration was adjusted so the Kobs was at least four-fold higher than knon-enz. Inhibition data were fit to an equation for tight-binding competitive inhibitors using KineTic™ software (BioKin, Ltd.) running on a Macintosh IIcx computer.

Molecule: CO[C@H]1C[C@@H]2CC[C@@H](C)[C@@](O)(O2)C(=O)C(=O)N2CCCC[C@H]2C(=O)O[C@H]([C@H](C)C[C@@H]2CC[C@@H](O)[C@H](OC)C2)CC(=O)[C@H](C)/C=C(\C)[C@@H](O)[C@@H](OC)C(=O)[C@H](C)C[C@H](C)/C=C/C=C/C=C/1C [rapamycin]
Ki (hFKBP52): 8 nM

Molecule: hFKBP12: recombinant human FK506 binding protein of Mr about 11,800, used as comparator PPIase
Specific activity at 15° C. ([1]; Substrate P1 = Ala, data from Park et al. 1992): 310000 M⁻¹ s⁻¹
Specific activity at 15° C. ([1]; Substrate P1 = Leu (Suc-Ala-Leu-Pro-Phe-pNA), data from Park et al. 1992, listed as FKBP12): 4.3e+06 M⁻¹ s⁻¹
Specific activity at 15° C. ([1]; Substrate P1 = Leu (Suc-Ala-Leu-Pro-Phe-pNA), data from Park et al. 1992): 4.3e+06 M⁻¹ s⁻¹
Specific activity at 15° C. ([1]; Substrate P1 = Phe, data from Park et al. 1992): 2e+06 M⁻¹ s⁻¹
Specific activity at 15° C. ([1]; Substrate P1 = Val, data from Park et al. 1992): 900000 M⁻¹ s⁻¹

Specific activity at 15° C. (PPIase, chymotrypsin-coupled assay) (Suc-Ala-Ala-Pro-Phe-pNA): 26000 M⁻¹ s⁻¹
Specific activity at 15° C. (PPIase, chymotrypsin-coupled assay) (Suc-Ala-Leu-Pro-Phe-pNA): 390000 M⁻¹ s⁻¹
Specific activity at 15° C. (PPIase, chymotrypsin-coupled assay) (Suc-Ala-Phe-Pro-Phe-pNA): 73000 M⁻¹ s⁻¹
Specific activity at 15° C. (PPIase, chymotrypsin-coupled assay) (Suc-Ala-Val-Pro-Phe-pNA): 39000 M⁻¹ s⁻¹
Molecule: recombinant human FKBP52 (Mr 52,000 FK506 binding protein) (enzyme)

B1: hFKBP52: Mr 52,000 FK506 binding protein; recombinant human form expressed in E. coli, 459 residues (SEQ ID NO: 26) (protein)
chain: T1 sequence (Q02790 1-459)
Specific activity at 15° C. ([2]; Substrate P1 = Ala): 26000 M⁻¹ s⁻¹
Specific activity at 15° C. ([2]; Substrate P1 = Leu (Suc-Ala-Leu-Pro-Phe-pNA)): 390000 M⁻¹ s⁻¹
Specific activity at 15° C. ([2]; Substrate P1 = Leu (Suc-Ala-Leu-Pro-Phe-pNA), listed as FKBP52): 390000 M⁻¹ s⁻¹
Specific activity at 15° C. ([2]; Substrate P1 = Phe): 73000 M⁻¹ s⁻¹
Specific activity at 15° C. ([2]; Substrate P1 = Val): 39000 M⁻¹ s⁻¹
Specific activity relative to recombinant human FKBP12 (rhFKBP12) ([2]; substrate Suc-Ala-Leu-Pro-Phe-pNA, 15° C.): approximately 10%
